Values quoted from earlier work as cited in publication PMC12990809.

Experiments:
Assay in all cases: pulldown
Conditions in all cases: 20 nM protein, 1.5 uM RNA pool; 20 mM HEPES pH 7.8, 70 mM KCl, 10 mM NaCl, 10% glycerol, 2 mM DTT, 0.1 ug/uL BSA; 30 min, 4 C (protocol of this paper; not …); cited from earlier work
[1] = target: T1, e_gw1.81.40.1 (Physcomitrella patens) (UniProt A0A2K1J988)
T1 sequence: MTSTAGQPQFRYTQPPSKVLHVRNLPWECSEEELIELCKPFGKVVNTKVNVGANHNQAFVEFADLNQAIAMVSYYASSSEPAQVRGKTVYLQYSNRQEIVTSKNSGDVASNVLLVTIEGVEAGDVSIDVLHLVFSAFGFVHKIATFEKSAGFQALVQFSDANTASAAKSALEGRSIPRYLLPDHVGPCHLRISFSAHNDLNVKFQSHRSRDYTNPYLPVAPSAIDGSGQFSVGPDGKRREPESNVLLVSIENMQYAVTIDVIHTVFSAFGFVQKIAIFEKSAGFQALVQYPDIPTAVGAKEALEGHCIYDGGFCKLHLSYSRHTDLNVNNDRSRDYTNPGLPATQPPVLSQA

[2] = target: T2, Thaps1841 (Thalassiosira pseudonana) (UniProt B8BS34)
T2 sequence: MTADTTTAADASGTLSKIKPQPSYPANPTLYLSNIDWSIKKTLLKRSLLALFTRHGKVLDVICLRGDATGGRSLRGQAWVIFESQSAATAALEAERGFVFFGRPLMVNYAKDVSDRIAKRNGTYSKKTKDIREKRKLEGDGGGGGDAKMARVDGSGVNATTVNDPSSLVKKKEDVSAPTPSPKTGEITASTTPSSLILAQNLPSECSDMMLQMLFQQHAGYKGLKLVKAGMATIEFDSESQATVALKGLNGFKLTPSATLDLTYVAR

[3] = target: T3, NCU08034 (Neurospora crassa) (UniProt Q7SAK7)
T3 sequence: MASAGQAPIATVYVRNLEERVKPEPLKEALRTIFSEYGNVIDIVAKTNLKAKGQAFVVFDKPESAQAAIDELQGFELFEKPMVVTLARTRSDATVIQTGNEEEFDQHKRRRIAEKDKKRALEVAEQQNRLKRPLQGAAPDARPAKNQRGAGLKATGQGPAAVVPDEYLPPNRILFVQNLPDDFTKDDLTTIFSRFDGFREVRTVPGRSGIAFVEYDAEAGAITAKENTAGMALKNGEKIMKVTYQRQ

[4] = target: T4, RO3G_00049 (Rhizopus oryzae) (UniProt I1BGL5)
T4 sequence: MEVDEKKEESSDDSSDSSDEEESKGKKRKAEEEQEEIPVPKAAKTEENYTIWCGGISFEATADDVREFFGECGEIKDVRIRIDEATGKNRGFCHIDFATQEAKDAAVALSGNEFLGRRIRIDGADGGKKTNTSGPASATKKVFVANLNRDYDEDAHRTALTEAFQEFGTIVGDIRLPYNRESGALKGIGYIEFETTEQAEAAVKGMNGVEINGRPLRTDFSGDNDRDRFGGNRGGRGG

sf3b4 (Danio rerio) = target: T5, sf3b4 (Danio rerio) (UniProt A0ACM8Q308)
T5 sequence: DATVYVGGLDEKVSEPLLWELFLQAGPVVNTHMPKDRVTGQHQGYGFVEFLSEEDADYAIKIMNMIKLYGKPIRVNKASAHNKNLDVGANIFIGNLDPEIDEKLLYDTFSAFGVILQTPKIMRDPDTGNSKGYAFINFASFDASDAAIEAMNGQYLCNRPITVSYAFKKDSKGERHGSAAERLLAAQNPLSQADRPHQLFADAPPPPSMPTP

[5] = target: T6, TVAG_302220 (Trichomonas vaginalis) (UniProt A2EGP7)
T6 sequence: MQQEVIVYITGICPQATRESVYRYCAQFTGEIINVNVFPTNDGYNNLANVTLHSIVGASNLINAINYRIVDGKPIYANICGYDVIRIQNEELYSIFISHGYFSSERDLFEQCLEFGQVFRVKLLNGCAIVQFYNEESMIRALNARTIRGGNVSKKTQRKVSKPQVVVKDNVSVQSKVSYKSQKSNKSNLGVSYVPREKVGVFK

[6] = target: T7, Tb927.3.3930 N185S (Trypanosoma brucei) (UniProt Q57WC9)
T7 sequence: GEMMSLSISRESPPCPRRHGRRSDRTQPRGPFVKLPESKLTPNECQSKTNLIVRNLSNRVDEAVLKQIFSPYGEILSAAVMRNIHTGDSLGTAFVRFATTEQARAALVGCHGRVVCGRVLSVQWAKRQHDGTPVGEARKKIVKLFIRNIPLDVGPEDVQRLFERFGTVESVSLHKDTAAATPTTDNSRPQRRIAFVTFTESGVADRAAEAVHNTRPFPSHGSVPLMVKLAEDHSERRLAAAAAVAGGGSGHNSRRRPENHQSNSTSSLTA

[7] = target: T8, LmjF.18.0180 (Leishmania major) (UniProt Q4QE24)
T8 sequence: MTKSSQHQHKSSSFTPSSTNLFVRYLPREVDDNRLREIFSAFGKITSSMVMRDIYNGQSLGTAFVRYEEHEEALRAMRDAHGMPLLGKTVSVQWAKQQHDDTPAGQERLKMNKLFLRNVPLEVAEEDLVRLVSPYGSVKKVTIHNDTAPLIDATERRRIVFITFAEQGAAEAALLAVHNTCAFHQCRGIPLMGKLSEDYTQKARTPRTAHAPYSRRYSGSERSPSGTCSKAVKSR

[8] = target: T9, PFI1695c (Plasmodium falciparum) (UniProt Q8I2G9)
T9 sequence: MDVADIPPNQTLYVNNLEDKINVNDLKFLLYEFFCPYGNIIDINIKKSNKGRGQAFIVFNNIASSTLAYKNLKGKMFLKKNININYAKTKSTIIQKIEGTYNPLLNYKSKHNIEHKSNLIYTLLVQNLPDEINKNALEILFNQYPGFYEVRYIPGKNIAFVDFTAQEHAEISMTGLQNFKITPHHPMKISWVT

Pcbp3 (Mus musculus) = Pcbp3 (Mus musculus) (UniProt P57722)
Chain of Pcbp3 (Mus musculus) (P57722 33-371): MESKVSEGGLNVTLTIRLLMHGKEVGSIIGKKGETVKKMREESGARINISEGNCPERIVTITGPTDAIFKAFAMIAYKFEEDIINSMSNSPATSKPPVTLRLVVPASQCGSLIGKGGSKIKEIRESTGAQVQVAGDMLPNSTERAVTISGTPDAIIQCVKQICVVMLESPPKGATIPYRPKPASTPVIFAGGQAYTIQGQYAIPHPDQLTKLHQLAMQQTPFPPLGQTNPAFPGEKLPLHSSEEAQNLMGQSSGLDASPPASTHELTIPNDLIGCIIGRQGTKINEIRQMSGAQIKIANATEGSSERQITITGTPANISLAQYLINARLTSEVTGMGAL

[9] = target: T10, Tb09.211.0560 (Trypanosoma brucei) (UniProt Q38EA2)
T10 sequence: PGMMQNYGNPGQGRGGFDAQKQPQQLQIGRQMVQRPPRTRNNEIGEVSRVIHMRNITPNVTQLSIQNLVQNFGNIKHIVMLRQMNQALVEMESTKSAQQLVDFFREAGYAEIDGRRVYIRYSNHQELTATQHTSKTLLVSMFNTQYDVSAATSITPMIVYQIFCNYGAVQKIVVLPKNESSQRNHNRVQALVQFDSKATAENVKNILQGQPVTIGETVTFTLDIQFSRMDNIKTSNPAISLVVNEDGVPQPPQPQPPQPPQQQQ

[10] = target: T11, LmjF.32.0750 (Leishmania major) (UniProt Q4Q5K7)
T11 sequence: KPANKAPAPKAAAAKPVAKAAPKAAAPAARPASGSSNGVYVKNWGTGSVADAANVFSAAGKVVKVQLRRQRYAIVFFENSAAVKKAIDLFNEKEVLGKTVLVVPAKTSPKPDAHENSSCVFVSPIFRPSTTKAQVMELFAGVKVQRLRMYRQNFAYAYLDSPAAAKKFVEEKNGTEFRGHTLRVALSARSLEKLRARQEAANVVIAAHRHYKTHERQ

[11] = target: T12, Tb927.8.6650 (Trypanosoma brucei) (UniProt Q57TU8)
T12 sequence: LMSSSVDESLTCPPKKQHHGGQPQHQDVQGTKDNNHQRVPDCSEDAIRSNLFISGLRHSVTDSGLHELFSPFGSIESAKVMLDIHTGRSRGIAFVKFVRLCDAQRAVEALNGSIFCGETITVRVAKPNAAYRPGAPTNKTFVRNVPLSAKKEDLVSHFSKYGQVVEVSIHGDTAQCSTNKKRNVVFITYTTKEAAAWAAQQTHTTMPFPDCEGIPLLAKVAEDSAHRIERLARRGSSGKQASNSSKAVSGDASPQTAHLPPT

[12] = target: T13, gw1.219.6.1 (Physcomitrella patens) (UniProt A0A2K1KNA4)
T13 sequence: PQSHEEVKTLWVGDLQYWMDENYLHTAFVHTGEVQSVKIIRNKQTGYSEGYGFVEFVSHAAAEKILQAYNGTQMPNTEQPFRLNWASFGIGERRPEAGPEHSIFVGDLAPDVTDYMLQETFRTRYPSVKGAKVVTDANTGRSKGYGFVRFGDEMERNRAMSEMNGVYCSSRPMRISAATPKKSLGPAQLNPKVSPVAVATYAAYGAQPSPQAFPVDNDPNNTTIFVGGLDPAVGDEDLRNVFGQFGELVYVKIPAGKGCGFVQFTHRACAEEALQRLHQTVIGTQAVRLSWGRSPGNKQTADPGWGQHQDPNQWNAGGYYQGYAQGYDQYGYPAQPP

[13] = target: T14, PF13_0315 (Plasmodium falciparum) (UniProt Q8IDB7)
T14 sequence: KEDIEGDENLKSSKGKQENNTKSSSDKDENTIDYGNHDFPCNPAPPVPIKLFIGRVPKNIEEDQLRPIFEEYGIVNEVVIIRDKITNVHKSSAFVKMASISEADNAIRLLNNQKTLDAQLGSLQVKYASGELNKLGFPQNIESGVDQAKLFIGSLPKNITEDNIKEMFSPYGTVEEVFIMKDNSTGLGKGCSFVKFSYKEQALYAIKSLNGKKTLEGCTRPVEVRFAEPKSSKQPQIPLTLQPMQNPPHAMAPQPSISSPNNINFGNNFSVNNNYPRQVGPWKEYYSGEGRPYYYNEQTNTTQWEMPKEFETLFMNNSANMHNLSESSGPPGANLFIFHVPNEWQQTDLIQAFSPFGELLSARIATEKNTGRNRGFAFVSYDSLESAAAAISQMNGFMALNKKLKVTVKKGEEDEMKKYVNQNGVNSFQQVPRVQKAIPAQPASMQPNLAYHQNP

[14] = target: T15, Tb927.7.5380 (Trypanosoma brucei) (UniProt Q582F3)
T15 sequence: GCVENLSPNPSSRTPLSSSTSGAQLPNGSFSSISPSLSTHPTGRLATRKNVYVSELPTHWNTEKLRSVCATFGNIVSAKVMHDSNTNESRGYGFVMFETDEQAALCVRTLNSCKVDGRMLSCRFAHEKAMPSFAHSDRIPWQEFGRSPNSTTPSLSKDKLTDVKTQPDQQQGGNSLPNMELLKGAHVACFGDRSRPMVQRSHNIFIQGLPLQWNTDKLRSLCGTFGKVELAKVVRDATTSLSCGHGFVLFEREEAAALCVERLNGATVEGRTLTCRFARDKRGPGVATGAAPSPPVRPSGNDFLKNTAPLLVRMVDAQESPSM

[15] = target: T16, PFI1435w (Plasmodium falciparum) (UniProt C0H570)
T16 sequence: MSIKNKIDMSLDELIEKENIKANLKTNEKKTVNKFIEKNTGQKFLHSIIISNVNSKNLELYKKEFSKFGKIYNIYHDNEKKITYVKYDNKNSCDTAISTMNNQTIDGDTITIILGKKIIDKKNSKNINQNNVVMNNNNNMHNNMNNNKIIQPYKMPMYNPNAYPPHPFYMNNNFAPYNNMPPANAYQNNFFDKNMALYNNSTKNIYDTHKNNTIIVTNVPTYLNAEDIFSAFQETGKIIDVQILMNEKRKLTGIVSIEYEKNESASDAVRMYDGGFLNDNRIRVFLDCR

[16] = target: T17, gw1.84.45.1 (Physcomitrella patens) (UniProt A0A2K1L0S1)
T17 sequence: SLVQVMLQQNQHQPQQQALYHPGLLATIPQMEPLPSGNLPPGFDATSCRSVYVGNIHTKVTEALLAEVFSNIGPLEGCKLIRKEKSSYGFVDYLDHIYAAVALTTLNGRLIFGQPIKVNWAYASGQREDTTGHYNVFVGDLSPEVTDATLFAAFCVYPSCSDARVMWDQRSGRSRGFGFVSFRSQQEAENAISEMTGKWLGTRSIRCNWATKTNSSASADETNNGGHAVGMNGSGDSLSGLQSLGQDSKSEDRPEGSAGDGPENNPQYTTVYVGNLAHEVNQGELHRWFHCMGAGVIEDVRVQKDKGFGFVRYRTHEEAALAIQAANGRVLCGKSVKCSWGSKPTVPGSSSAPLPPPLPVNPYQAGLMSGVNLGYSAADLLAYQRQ

AACCUUU [RNAcompete motif RNCMPT00206]
binding signal (z-score (mean of top ten 7-mers)) [1]: 6.39

ACACGC [RNAcompete motif RNCMPT00225]
binding signal (z-score (mean of top ten 7-mers)) [2]: 6.33

AGCACA [RNAcompete motif RNCMPT00209]
binding signal (z-score (mean of top ten 7-mers)) [3]: 11.1

AGGGGAA [RNAcompete motif RNCMPT00205]
binding signal (z-score (mean of top ten 7-mers)) [4]: 9.5

CAAAAG [RNAcompete motif RNCMPT00224]
binding signal (z-score (mean of top ten 7-mers)) (sf3b4 (Danio rerio)): 28.4

CAAUAA [RNAcompete motif RNCMPT00226]
binding signal (z-score (mean of top ten 7-mers)) [5]: 12.9

CAUUGU [RNAcompete motif RNCMPT00216]
binding signal (z-score (mean of top ten 7-mers)) [6]: 18.7

CAUUUU [RNAcompete motif RNCMPT00212]
binding signal (z-score (mean of top ten 7-mers)) [7]: 30.2

CCUGCAC [RNAcompete motif RNCMPT00203]
binding signal (z-score (mean of top ten 7-mers)) [8]: 9.07

CUUUCC [RNAcompete motif RNCMPT00215]
binding signal (z-score (mean of top ten 7-mers)) (Pcbp3 (Mus musculus)): 6.23

CUUUCU [RNAcompete motif RNCMPT00220]
binding signal (z-score (mean of top ten 7-mers)) [9]: 6.05

UACACG [RNAcompete motif RNCMPT00223]
binding signal (z-score (mean of top ten 7-mers)) [10]: 10.4

UAUACU [RNAcompete motif RNCMPT00219]
binding signal (z-score (mean of top ten 7-mers)) [11]: 15.8

UGUUUUU [RNAcompete motif RNCMPT00229]
binding signal (z-score (mean of top ten 7-mers)) [12]: 6.94

UUACAU [RNAcompete motif RNCMPT00200]
binding signal (z-score (mean of top ten 7-mers)) [13]: 7.45

UUAUU [RNAcompete motif RNCMPT00218]
binding signal (z-score (mean of top ten 7-mers)) [14]: 7.15

UUUUUU [RNAcompete motif RNCMPT00202]
binding signal (z-score (mean of top ten 7-mers)) [15]: 6.28

UUUUUU [RNAcompete motif RNCMPT00228]
binding signal (z-score (mean of top ten 7-mers)) [16]: 12.9
